Measured values taken from PMC9016638 (bioRxiv, 2022).
No end group written: not given here. *: point of attachment. Biotin = O=C1N[C@H]2[C@H](CS[C@H]2CCCCC(=O)*)N1

Experiments:
Experiment in all cases: […]
SARS-CoV-2 S2 peptide 42 = target: T1, SARS-CoV-2 S2 peptide 42 (SARS-CoV-2 Wuhan-Hu-1, UniProt P0DTC2)
T1 chain: Biotin-PSKPSKRSFIEDLLF

SARS-CoV-2 S2 peptide 43 = target: T2, SARS-CoV-2 S2 peptide 43 (SARS-CoV-2 Wuhan-Hu-1, UniProt P0DTC2)
T2 chain: Biotin-PSKRSFIEDLLFNKV

SARS-CoV-2 S2 peptide 44 = target: T3, SARS-CoV-2 S2 peptide 44 (SARS-CoV-2 Wuhan-Hu-1, UniProt P0DTC2)
T3 chain: Biotin-RSFIEDLLFNKVTLA

Measured: binding result

B1: COV44-62 (antibody, V domains shown)
VH: QMQLMQSGAEVKKPGASVTVSCKASGDTFSDYRIHWVRQAPGQGLEWMGRMNPKSGDTNFAQKFQGRVTMTRDMSINTAYMTLSGLTFDDTALYYCASLLIVGGFDPLDDFEVWGQGTMVTISS
VL: QSALTQPPSASGSPGQSVTISCSGTSSDVGGYNFVSWYQHHPGKAPKILIYEVTKRPSGVPDRFSGSKSGNTASLTVSGLQAEDEADYYCSSYGGTNNLLFGGGTKLTVL
binds: SARS-CoV-2 S2 peptide 42 | SARS-CoV-2 S2 peptide 43 | SARS-CoV-2 S2 peptide 44

B2: COV44-79 (antibody, V domains shown)
VH: QVQLVESGGGVVQPGRSLRLSCAASGLTFSGYAMHWVRQAPGKGLEWVAVISRDARNKYYADSVKGRFTISRDNSKKTVYLEMNSLRVEDTAVYYCAILIIPGITEPGSPDALDIWGQGTMVSVSS
VL: DIQMTQSPSSMSASVGDRVTITCRASQDISKWLAWYQQRPGKAPKLLIYAASSLQSGVPSRFSGSGSGTDFTLTISSLQPEDFATYYCQQASSFPWSITFGQGTRLEIR
binds: SARS-CoV-2 S2 peptide 42 | SARS-CoV-2 S2 peptide 43 | SARS-CoV-2 S2 peptide 44
